# In patent US20200190192A1 (SUTRO BIOPHARMA, published 2020):
# Residue numbers refer to the chain shown, from its start. Numbers in names are those of the source.
# T1: cynomolgus Tim-3 expressed on CHO cells (cynomolgus monkey)
# T1 construct: also called cTim-3; Cyno Tim-3 (CHO)
# T1 chain: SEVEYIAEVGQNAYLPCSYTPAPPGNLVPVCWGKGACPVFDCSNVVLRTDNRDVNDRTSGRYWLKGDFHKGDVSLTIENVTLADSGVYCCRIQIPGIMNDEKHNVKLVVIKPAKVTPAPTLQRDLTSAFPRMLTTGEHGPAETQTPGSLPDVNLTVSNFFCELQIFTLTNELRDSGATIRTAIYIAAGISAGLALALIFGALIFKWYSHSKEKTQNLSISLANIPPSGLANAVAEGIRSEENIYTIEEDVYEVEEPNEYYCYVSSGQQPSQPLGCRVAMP
# B1: h22E11-VK4-1 × h22E11-VH3-23 (antibody, V domains shown)
# VH: EVQLLESGGGLVQPGGSLRLSCAVSGFSLTSYGVHWVRQAPGKGLEWLVVIWSDGSTTYNDSVKGRFTISKDNSKNTVYLQMNSLRAEDTAVYYCARQGGYRYDDAMDYWGQGTLVTVSS
# VL: DIVLTQSPDSLAVSLGERATINCKASQSVDYDGNSYVNWYQQKPGQPPKLLIYAASNLESGVPDRFSGSGSGTDFTLTISSLQAEDVAVYYCQQSNEDPYTFGQGTKVEIK
# notes: Humanized m22E11
# B2: h22E11-5-IgG-LC × h22E11-5-IgG-HC (antibody, V domains shown)
# VH: B1 VH with L5V, D61S, S62A, V63L, G65S, S74A, T77S
# VL: EIVLTQSPGTLSLSPGERATLSCKASQSVDYDGNSYVAWYQQKPGQAPRLLIYAASNLESGIPDRFSGSGSGTDFTLTISRLEPEDFAVYYCQQSNEDPYTFGQGTKVEIK
# notes: Humanized m22E11; also called h22E11-5 IgG (lot 2)
# B3: h22E11-VK3-11 × h22E11-5-IgG-HC (antibody, V domains shown)
# VH: B1 VH with L5V, D61S, S62A, V63L, G65S, S74A, T77S
# VL: B2 VL with G9A, A38N, D64A, R81S
# notes: Humanized m22E11
# B4: 1353-G10 scFvFc-zwB × 1649-A01 Hc zwA R31D/TrstmbLC S56D (bispecific antibody)
# scFv: not shown
# VH: EVQLVESGGGLVQPGGSLRLSCAASGFNISDYYIHWVRQAPGKGLEWVAGITPVRGYTEYADSVKDRFTISADTSKNTAYLQMNSLRAEDTAVYYCARGYVYRMWDSYDYWGQGTLVTVSS
# VL: not shown
# notes: Tim-3 heavy chain with zwA CH3 mutations
# B5: 1353-G10 scFvFc-zwB × 1649-A01 Hc zwA R31D/Y56D/TrstmbLC S56D (bispecific antibody)
# scFv: not shown
# VH: B4 VH with Y57D
# VL: not shown
# B6: 1353-G10 scFvFc-zwB × 1649-A01 Hc zwA S30D/R31D/Y56D/TrstmbLC S56D (bispecific antibody)
# scFv: not shown
# VH: B4 VH with S30D, Y57D
# VL: not shown
# notes: as for B4
# B7: 1353-G10 scFvFc-zwB × 1649-A01 Hc zwA S30D/TrstmbLC S56D (bispecific antibody)
# scFv: not shown
# VH: B4 VH with S30D, D31R
# VL: not shown
# notes: as for B4
# B8: 1353-G10 scFvFc-zwB × 1649-A01 Hc zwA S30D/R31D/TrstmbLC S56D (bispecific antibody)
# scFv: not shown
# VH: B4 VH with S30D
# VL: not shown
# notes: as for B4
# B9: 1353-G10 scFvFc-zwB × 1649-A01 Hc zwA S30D/Y56D/TrstmbLC S56D (bispecific antibody)
# scFv: not shown
# VH: B4 VH with S30D, D31R, Y57D
# VL: not shown
# notes: Tim-3 heavy chain with zwA CH3 mutations; also called 1649-A01 Hc zwA S30D/Y56D/TrsimbLC S56D
# Target: T2, human Tim-3 expressed on the cell surface (human, UniProt Q8TDQ0 22-301)
# T2 construct: also called hTim-3; Human Tim-3 (CHO)
# Assay: flow cytometry, CHO-human Tim-3 cells
row,Binder,Kd
1,B1,0.9 nM
2,B2,1 nM
3,B3,0.8 nM

# Target: T3, recombinant human Tim-3-Fc (R&D Systems, 2365-TM) (human, UniProt Q8TDQ0 22-202, biotinylated in the Galectin-9 competition ELISA (sites not given))
# T3 construct: Bought protein; also called huTim-3-Fc; biotinylated Tim-3-Fc; not shown: Fc of the bought fusion protein
# Assay: SPR Biacore, human Tim-3 Fc;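 also: antibodies captured on an anti-FLAG sensor surface, Tim-3-Fc flowed over as analyte at 25 °C in HBS-EP+ buffer, rates fit with a 1:1 Langmuir model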
row,Binder,koff
1,B1,0.000875 s⁻¹
2,B2,0.0011 s⁻¹
3,B3,0.00104 s⁻¹

# Target: T3, recombinant human Tim-3-Fc (R&D …)
# Assay: SPR Biacore, human Tim-3 Fc; KD estimated;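 as to koff: antibodies captured on an anti-FLAG sensor surface, Tim-3-Fc flowed over as analyte at 25 °C in HBS-EP+ buffer, rates fit with a 1:1 Langmuir model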
row,Binder,Kd
1,B1,5 nM
2,B2,6.8 nM
3,B3,5.9 nM

# Target: T2, human Tim-3 expressed on the cell …
# Assay: flow cytometry, activated human CD4+ T cells
row,Binder,Kd
1,B1,0.9 nM
2,B3,1.1 nM

# Target: T3, recombinant human Tim-3-Fc (R&D …)
# Assay: competition ELISA, biotin-Tim-3-Fc vs coated Galectin-9
row,Binder,IC50
1,B1,0.67 nM
2,B2,0.77 nM
3,B3,0.64 nM

# Target: T1, cynomolgus Tim-3 expressed on CHO cells
# Assay: flow cytometry, CHO-cyno Tim-3 cells
row,Binder,Kd
1,B1,4.6 nM
2,B3,5.3 nM

# Target: T2, human Tim-3 expressed on the cell …
# Assay: flow cytometry, CHO-human Tim-3 cells
# Parameters: Bmax: unit not given here
# Remark: another data set of the same source
Binder,Bmax,Kd
B4,11300,3.5 nM
B5,11400,3.3 nM
B6,10900,4.3 nM
B7,11700,3.2 nM
B8,10500,3.7 nM
B9,10000,3.6 nM

# Target: T4, human Tim-3 (Biacore analyte; TIM-3-Fc or TIM-3-HIS, not said which) (human, UniProt Q8TDQ0 22-202)
# T4 construct: also called TIM-3 antigen; not shown: Fc or HIS tag
# Assay: SPR, Tim-3 analyte
row,Binder,Kd
1,B4,8.6 nM
2,B5,8.8 nM
3,B6,11 nM
4,B7,7.1 nM
5,B8,8.7 nM
6,B9,9.7 nM

# Target: T5, human PD-1 expressed on CHO cells (human, UniProt Q15116 25-288)
# T5 construct: also called hPD-1; CHO-hPD-1
# Assay: flow cytometry, CHO-human PD-1 cells
# Parameters: Bmax: unit not given here
Binder,Bmax,Kd
B4,14000,2.7 nM
B5,12600,1.6 nM
B6,13000,2.1 nM
B7,12500,1.3 nM
B8,9860,1.1 nM
B9,9650,1.2 nM

# Target: T6, biotinylated recombinant human PD-1 (AcroBiosystems) (human, UniProt Q15116 25-167, limits assumed, biotinylated (sites not given))
# T6 construct: Bought protein; also called biotinylated PD-1
# Assay: competition, flow cytometry: biotin-PD-1 binding to CHO-human PD-L1 cells
row,Binder,IC50
1,B4,117 nM
2,B5,148 nM
3,B6,147 nM
4,B7,128 nM
5,B8,138 nM
6,B9,108 nM
